In US10428140B2, “Anti-EphA4 antibody” (EISAI R&D MANAGEMENT CO., LTD., priority 2015, dated 2019):
Numbering of substitutions follows the chain as printed.

T1: human EphB3 (Homo sapiens, UniProt P54753)
T1 construct: a protein of the extracellular region of each human Eph receptor fused with the SEAP protein and the His tag; made in house; host or cells: Expi293F cells
T1 sequence (P54753 34-559 limits assumed): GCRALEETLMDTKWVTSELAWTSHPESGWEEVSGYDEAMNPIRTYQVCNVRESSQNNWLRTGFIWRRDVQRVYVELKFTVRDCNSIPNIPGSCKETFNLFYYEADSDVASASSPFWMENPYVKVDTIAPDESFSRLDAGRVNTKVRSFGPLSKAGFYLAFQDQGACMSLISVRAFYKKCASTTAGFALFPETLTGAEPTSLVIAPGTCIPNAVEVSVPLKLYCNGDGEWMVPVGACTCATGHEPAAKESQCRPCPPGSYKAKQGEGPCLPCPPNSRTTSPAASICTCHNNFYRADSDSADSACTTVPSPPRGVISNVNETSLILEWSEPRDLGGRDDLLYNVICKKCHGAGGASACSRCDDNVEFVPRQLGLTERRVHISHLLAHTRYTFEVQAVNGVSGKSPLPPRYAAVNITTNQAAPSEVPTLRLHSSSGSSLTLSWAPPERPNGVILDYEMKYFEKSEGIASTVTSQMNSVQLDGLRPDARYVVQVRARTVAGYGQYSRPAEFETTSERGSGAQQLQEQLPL

T2: human EphB2 (Homo sapiens, UniProt P29323)
T2 construct: a protein of the extracellular region of each human Eph receptor fused with the SEAP protein and the His tag; made in house; host or cells: Expi293F cells
T2 sequence (P29323 19-543 limits assumed): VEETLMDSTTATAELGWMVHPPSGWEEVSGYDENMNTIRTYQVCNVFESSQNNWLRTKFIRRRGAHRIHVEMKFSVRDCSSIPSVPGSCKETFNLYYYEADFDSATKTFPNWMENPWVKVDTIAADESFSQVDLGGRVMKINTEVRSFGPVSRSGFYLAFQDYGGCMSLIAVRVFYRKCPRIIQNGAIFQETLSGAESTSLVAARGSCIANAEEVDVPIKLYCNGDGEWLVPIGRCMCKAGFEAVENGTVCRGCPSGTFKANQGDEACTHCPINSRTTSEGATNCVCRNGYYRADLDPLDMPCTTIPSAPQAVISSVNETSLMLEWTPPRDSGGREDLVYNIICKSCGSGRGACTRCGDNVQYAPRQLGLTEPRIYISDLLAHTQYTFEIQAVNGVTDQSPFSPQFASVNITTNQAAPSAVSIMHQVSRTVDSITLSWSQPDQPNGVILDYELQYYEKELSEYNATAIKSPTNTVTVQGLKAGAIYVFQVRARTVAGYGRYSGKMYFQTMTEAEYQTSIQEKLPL

B1: 142 (antibody, V domains shown)
VH: QVQLVQSGSELKKPGASVKVSCKASGYTFTDYSMHWVRQAPGQGLKWMGWINTETGEPTYADDFKGRFVFSLDTSVSTAYLQISSLKAEDTAVYYCARIPLYYYGSRYWYFDVWGQGTTVTVSS
VL: DIQMTQSPSSLSASVGDRVTITCRASENIYRNLAWYQQKPGKAPKLLVYAATNLADGVPSRFSGSGSGTDYTLTISSLQPEDFATYYCQHFWGTPWTFGQGTKVEIK
modifications: synthetic humanized antibody heavy chain variable region sequence; synthetic humanized antibody light chain variable region sequence
B2: 143 (antibody, V domains shown)
VH: B1 VH with V2I
VL: B1 VL
modifications: synthetic humanized antibody heavy chain variable region sequence; synthetic humanized antibody light chain variable region sequence
B3: 154 (antibody, V domains shown)
VH: B1 VH with K46E
VL: B1 VL with V48L, P80S
modifications: synthetic humanized antibody heavy chain variable region sequence; synthetic humanized antibody light chain variable region sequence
B4: 155 (antibody, V domains shown)
VH: B1 VH with V2I
VL: B1 VL with V48L, P80S
modifications: synthetic humanized antibody heavy chain variable region sequence; synthetic humanized antibody light chain variable region sequence
B5: 158 (antibody, V domains shown)
VH: B1 VH with D62Q, D63G, K65T
VL: B1 VL with K45Q, V48L
modifications: synthetic humanized antibody heavy chain variable region sequence; synthetic humanized antibody light chain variable region sequence
B6: 152 (antibody, V domains shown)
VH: B1 VH with K46E, D62Q, D63G, K65T
VL: B1 VL with V48L, P80S
modifications: synthetic humanized antibody heavy chain variable region sequence; synthetic humanized antibody light chain variable region sequence
B7: 151 (antibody, V domains shown)
VH: B1 VH with V2I, D62Q, D63G, K65T
VL: B1 VL with V48L, P80S
modifications: synthetic humanized antibody heavy chain variable region sequence; synthetic humanized antibody light chain variable region sequence
B8: 157 (antibody, V domains shown)
VH: B1 VH with K46E, D62Q, D63G, K65T
VL: B1 VL with K45Q, V48L
modifications: synthetic humanized antibody heavy chain variable region sequence; synthetic humanized antibody light chain variable region sequence
B9: 153 (antibody, V domains shown)
VH: B1 VH with D62Q, D63G, K65T
VL: B1 VL with V48L, P80S
modifications: synthetic humanized antibody heavy chain variable region sequence; synthetic humanized antibody light chain variable region sequence
B10: 145 (antibody, V domains shown)
VH: B1 VH
VL: B1 VL with V48L, P80S
modifications: synthetic humanized antibody heavy chain variable region sequence; synthetic humanized antibody light chain variable region sequence

What follows are molecules tested against T1, human EphB3 (assay: Selectivity ELISA of humanized antibodies for human Eph receptor). Conditions: coated protein 1 nM.
Type: binding
Outline: (§1)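 Human Eph ECD-SEAP-His fusions, harvested after 5 days of Expi293F expression, are captured on anti-His-coated wells (1 nM final). Bound humanized antibody is detected with HRP anti-IgG and TMB at 450 nm.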

Molecule | hEphB3-SEAP-: absorbance at 450 nm, percentage with respect to hEphA4-SEAP-His as 100%
B1 | 5.6%
B2 | 5.9%
B3 | 6.2%
B4 | 5.5%
B5 | 6.5%
B6 | 6.0%
B7 | 7.3%
B8 | 6.4%
B9 | 5.9%
B10 | 6.7%

The molecules below were run against T3, human EphA2 (Homo sapiens, UniProt P29317) in the same assay as above. Conditions: coated protein 1 nM.
T3 construct: a protein of the extracellular region of each human Eph receptor fused with the SEAP protein and the His tag; made in house; host or cells: Expi293F cells (culture supernatant)
T3 sequence (P29317 24-537 limits assumed): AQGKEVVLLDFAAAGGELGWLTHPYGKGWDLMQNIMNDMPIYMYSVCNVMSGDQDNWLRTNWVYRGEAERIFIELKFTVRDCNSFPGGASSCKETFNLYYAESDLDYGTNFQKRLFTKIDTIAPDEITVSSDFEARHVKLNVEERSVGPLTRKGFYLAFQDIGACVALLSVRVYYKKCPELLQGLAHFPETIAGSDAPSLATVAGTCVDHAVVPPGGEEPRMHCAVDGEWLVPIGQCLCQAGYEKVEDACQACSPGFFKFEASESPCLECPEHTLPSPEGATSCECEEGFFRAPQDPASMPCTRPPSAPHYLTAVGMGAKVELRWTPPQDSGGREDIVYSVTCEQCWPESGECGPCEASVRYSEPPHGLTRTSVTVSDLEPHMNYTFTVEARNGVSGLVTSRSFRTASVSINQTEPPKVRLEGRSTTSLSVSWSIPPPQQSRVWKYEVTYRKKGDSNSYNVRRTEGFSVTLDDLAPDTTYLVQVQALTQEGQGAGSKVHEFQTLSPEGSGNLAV
Type: binding
Outline: as §1

Molecule | hEphA2-SEAP-: absorbance at 450 nm, percentage with respect to hEphA4-SEAP-His as 100%
B1 | 5.6%
B2 | 5.7%
B3 | 6.2%
B4 | 5.5%
B5 | 6.7%
B6 | 5.8%
B7 | 6.9%
B8 | 6.3%
B9 | 6.0%
B10 | 6.5%

What follows are molecules tested against T4, human EphA5 (Homo sapiens, UniProt P54756) in the same assay as above. Conditions: coated protein 1 nM.
T4 construct: a protein of the extracellular region of each human Eph receptor fused with the SEAP protein and the His tag; made in house; host or cells: Expi293F cells (culture supernatant)
T4 sequence (P54756 25-573 limits assumed): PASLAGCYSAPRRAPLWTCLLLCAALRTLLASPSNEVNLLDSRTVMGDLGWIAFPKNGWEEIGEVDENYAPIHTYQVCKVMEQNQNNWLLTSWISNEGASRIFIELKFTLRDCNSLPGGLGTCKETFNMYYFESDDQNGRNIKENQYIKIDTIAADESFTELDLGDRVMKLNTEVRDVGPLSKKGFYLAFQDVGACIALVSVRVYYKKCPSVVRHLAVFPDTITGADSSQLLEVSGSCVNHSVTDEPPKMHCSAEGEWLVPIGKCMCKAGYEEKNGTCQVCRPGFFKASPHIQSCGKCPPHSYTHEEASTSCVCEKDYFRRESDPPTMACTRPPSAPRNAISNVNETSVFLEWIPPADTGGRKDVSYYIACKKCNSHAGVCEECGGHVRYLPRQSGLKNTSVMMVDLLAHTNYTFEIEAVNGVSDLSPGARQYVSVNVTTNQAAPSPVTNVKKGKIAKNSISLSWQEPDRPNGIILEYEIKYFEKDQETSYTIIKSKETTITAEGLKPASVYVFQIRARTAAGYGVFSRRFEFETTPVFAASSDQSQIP
Type: binding
Outline: as §1

Molecule | hEphA5-SEAP-: absorbance at 450 nm, percentage with respect to hEphA4-SEAP-His as 100%
B1 | 5.7%
B2 | 6.1%
B3 | 6.3%
B4 | 5.6%
B5 | 6.7%
B6 | 5.8%
B7 | 7.0%
B8 | 6.1%
B9 | 6.1%
B10 | 6.6%

The molecules below were run against SEAP-His (Homo sapiens, UniProt P05187) in the same assay as above. Conditions: coated protein 1 nM.
Chain of SEAP-His (P05187 23-511 limits assumed): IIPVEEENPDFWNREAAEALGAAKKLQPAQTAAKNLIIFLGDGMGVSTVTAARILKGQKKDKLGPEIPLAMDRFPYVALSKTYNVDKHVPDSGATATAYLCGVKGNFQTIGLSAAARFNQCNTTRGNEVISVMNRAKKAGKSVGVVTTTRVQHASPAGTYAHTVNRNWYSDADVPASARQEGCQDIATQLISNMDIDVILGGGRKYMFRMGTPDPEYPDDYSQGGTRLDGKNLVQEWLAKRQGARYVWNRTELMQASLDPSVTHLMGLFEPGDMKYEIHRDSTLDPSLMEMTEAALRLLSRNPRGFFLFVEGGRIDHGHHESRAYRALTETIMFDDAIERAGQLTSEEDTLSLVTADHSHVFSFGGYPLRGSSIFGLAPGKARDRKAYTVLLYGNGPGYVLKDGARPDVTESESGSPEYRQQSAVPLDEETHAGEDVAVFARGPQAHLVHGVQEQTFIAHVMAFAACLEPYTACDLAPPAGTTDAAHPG
Type: binding
Outline: as §1

Molecule | SEAP-His: absorbance at 450 nm, percentage with respect to hEphA4-SEAP-His as 100%
B1 | 5.8%
B2 | 6.3%
B3 | 6.3%
B4 | 5.8%
B5 | 6.3%
B6 | 5.4%
B7 | 6.8%
B8 | 6.1%
B9 | 5.9%
B10 | 6.4%

Each molecule was assayed against T2, human EphB2 in the same assay as above. Conditions: coated protein 1 nM.
Type: binding
Outline: as §1

Molecule | hEphB2-SEAP-: absorbance at 450 nm, percentage with respect to hEphA4-SEAP-His as 100%
B1 | 5.6%
B2 | 5.8%
B3 | 6.2%
B4 | 5.5%
B5 | 6.3%
B6 | 5.8%
B7 | 7.0%
B8 | 6.2%
B9 | 5.9%
B10 | 6.7%
